Assay results from article PMC4297295, “Structural Conservation Despite Huge Sequence Diversity Allows EPCR Binding by the PfEMP1 Family Implicated in Severe Childhood Malaria” (Cell Host & Microbe, 2015).

Assays:
[1] = target: endothelial protein C receptor, extracellular domain (human) (UniProt Q9UNN8); experiment: small-angle X-ray scattering
[2] = target: CIDRα1.4 domain of PfEMP1 HB3var03, E. coli construct with domain boundaries for crystallisation (Plasmodium falciparum); experiment: ITC; MicroCal iTC200, 25°C, 20 mM HEPES pH 7.5, 150 mM NaCl; EPCR (36 µM by the legend, 50 µM by the supplemental methods) injected into the cell with HB3var03 CIDRα1.4
[3] = target: endothelial protein C receptor (EPCR), extracellular domain, biotinylated on the N-terminal BAP tag (human) (UniProt Q9UNN8); experiment: SPR
[4] = target: endothelial protein C receptor (EPCR), extracellular domain, not biotinylated (human) (UniProt Q9UNN8); experiment: AUC
[5] = target: endothelial protein C receptor (EPCR), extracellular domain, not biotinylated (human) (UniProt Q9UNN8); experiment: SEC-MALS; Superdex 75 analytical column, light scattering at 662 nm at 8 angles (Heleos 8), masses by the Zimm equation (ASTRA 6.1); HB3var03 CIDRα1.4, EPCR and their complex
[6] = target: T1, endothelial protein C receptor (EPCR), extracellular domain, biotinylated on the N-terminal BAP tag (human, UniProt Q9UNN8 18-210, biotin attached to the N-terminal BAP tag (BirA)); experiment: SPR; Biacore T200; biotinylated EPCR captured on a CAP chip (Biotin Capture Kit) to 150 RU, fresh for each cycle; two-fold dilution series of each CIDRα1 injected for 240 s, dissociation 300 s; 20 mM HEPES pH 7.5, 150 mM NaCl, 0.005% Tween-20, 25°C; surface without EPCR subtracted; global fit to a 1:1 interaction model; details: both partners purified
T1 construct: also called biotinylated recombinant EPCR; ECPR
T1 sequence: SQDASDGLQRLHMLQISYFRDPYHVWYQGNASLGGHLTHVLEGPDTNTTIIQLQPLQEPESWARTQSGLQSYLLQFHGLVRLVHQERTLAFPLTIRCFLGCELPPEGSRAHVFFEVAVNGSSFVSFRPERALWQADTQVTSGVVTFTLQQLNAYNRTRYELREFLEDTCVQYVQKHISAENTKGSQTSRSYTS

DD2var32 DBLα1.7-CIDRα1.4-DBLβ1 (the three membrane distal domains) (domain or fragment)
stoichiometry N [1]: 1 PfEMP1:EPCR

endothelial protein C receptor (EPCR), extracellular domain, not biotinylated (from UniProt Q9UNN8 18-210)
Kd [2]: 1.5 nM
stoichiometry N [2]: 0.94

CIDRα1.4 domain of PfEMP1 IT4var07, E. coli construct with domain boundaries for crystallisation (domain or fragment)
Kd [3]: 1.3 nM
koff [3]: 0.000468 s⁻¹
kon [3]: 370000 M⁻¹ s⁻¹

CIDRα1.4 domain of PfEMP1 HB3var03, E. coli construct with domain boundaries for crystallisation (domain or fragment)
stoichiometry N [4]: 1
Kd [3]: 0.37 nM
koff [3]: 0.000197 s⁻¹
kon [3]: 532000 M⁻¹ s⁻¹
stoichiometry N [5]: 1

B1: CIDRα1.5b domain 1918-5 (patient isolate 1918) (domain or fragment, Plasmodium falciparum)
chain: PDCGVKCTNGKCEEKTDVDGNCGNKETYIPPRDISPTEISVLYSGYKRDDISEKLETFCREPTNNKSKNNETWKCYYKHSYNNKINKCIRQNEENIKNKLIINLDTFFEFWVRSFLNDTIDWKYDLNTCMNFTNTTKCNNNCNKNCKCFEQWVNKKETEWKNVAQYFFKHNEISKKKYCEILKDIFENYYVEVIKKVFKGDNKWKEIMVDIKNKIDCSNLKNGTEHLEKIINVLINQEQADATTCLKNNPIESCPKAEPQKSDENTQPQDTPPNSC
notes: The C-terminal V5 and His tags are told for the newly synthesised domains (D1:p2); also called CIDRa1.5b 1918-5_1918; 1918-5 (1.5b)
Kd [6]: 229 nM
koff [6]: 0.000108 s⁻¹
kon [6]: 471 M⁻¹ s⁻¹
